Experimental data taken from patent US20210238260.
Numbering of substitutions follows the chain as printed. Numbers in names are those of the source.

B1: FIXa-Y155F/K247N/N249S/T343R/R403E/E410N (protein)
chain 1: YNSGKLEEFVQGNLERECMEEKCSFEEAREVFENTERTTEFWKQYVDGDQCESNPCLNGGSCKDDINSYECWCPFGFEGKNCELDVTCNIKNGRCEQFCKNSADNKVVCSCTEGYRLAENQKSCEPAVPFPCGRVSVSQTSKLTR
chain 2: VVGGEDAKPGQFPWQVVLNGKVDAFCGGSIVNEKWIVTAAHCVETGVKITVVAGEHNIEETEHTEQNRSVIRIIPHHNYNAAINKYNHDIALLELDEPLVLNSYVTPICIADKEYTNIFLKFGSGYVSGWGRVFHKGRSALVLQYLRVPLVDRATCLRSTKFRIYNNMFCAGFHEGGRDSCQGDSGGPHVTEVEGTSFLTGIISWGEECAMKGKYGIYTKVSEYVNWIKNKTKLT
B2: FIXa variant Y155F/I251S/R318Y/R338E/R403E/E410N (protein)
chain 1: B1 chain 1
chain 2: B1 chain 2 with N67K, S69N, I71S, R138Y, R158E, R163T
B3: FIXa R318Y/R403E/E410N (protein)
chain 1: B1 chain 1
chain 2: B1 chain 2 with N67K, S69N, R138Y, R163T
B4: FIXa-D104N/K106S/K228N/K247N/N249S/R318Y/R338E/R403E/E410N (protein)
chain 1: B1 chain 1 with D104N, K106S
chain 2: B1 chain 2 with K48N, R138Y, R158E, R163T
B5: FIXa R318Y/R338E/E410N (protein)
chain 1: B1 chain 1
chain 2: B1 chain 2 with N67K, S69N, R138Y, R158E, R163T, E223R
B6: FIXa D203N/F205T/R338E (protein)
chain 1: B1 chain 1
chain 2: B1 chain 2 with D23N, F25T, N67K, S69N, R158E, R163T, E223R, N230E
B7: FIXa D104N/K106S/R318Y/R338E/E410N (protein)
chain 1: B1 chain 1 with D104N, K106S
chain 2: B1 chain 2 with N67K, S69N, R138Y, R158E, R163T, E223R
B8: FIXa D203N/F205T/R318Y (protein)
chain 1: B1 chain 1
chain 2: B1 chain 2 with D23N, F25T, N67K, S69N, R138Y, R163T, E223R, N230E
B9: FIXa variant Y155F/K247N/N249S/R318Y/R338E/E410N (protein)
chain 1: B1 chain 1
chain 2: B1 chain 2 with R138Y, R158E, R163T, E223R
B10: FIXa R338E/R403E/E410N (protein)
chain 1: B1 chain 1
chain 2: B1 chain 2 with N67K, S69N, R158E, R163T
B11: FIXa Y259F/K265T/Y345T (protein)
chain 1: B1 chain 1
chain 2: B1 chain 2 with N67K, S69N, Y79F, K85T, R163T, Y165T, E223R, N230E
B12: FIXa K228N/R338E/R403E (protein)
chain 1: B1 chain 1
chain 2: B1 chain 2 with K48N, N67K, S69N, R158E, R163T, N230E
B13: FIXa-Y155F/R318Y/R338E/T343R/R403E/E410N (protein)
chain 1: B1 chain 1
chain 2: B1 chain 2 with N67K, S69N, R138Y, R158E
B14: FIXa variant K247N/N249S/R318Y/R338E/E410N (protein)
chain 1: B1 chain 1
chain 2: B1 chain 2 with R138Y, R158E, R163T, E223R
B15: FIXa variant D104N/K106S/I251S/R318Y/R338E/R403E/E410N (protein)
chain 1: B1 chain 1 with D104N, K106S
chain 2: B1 chain 2 with N67K, S69N, I71S, R138Y, R158E, R163T
B16: FIXa-Y155F/R318Y/R338E/R403E (protein)
chain 1: B1 chain 1
chain 2: B1 chain 2 with N67K, S69N, R138Y, R158E, R163T, N230E
B17: FIXa variant D104N/K106S/K247N/N249S/R318Y/R338E/R403E/E410N (protein)
chain 1: B1 chain 1 with D104N, K106S
chain 2: B1 chain 2 with R138Y, R158E, R163T
B18: FIXa-D104N/K106S/R318Y/R338E/T343R/R403E/E410N (protein)
chain 1: B1 chain 1 with D104N, K106S
chain 2: B1 chain 2 with N67K, S69N, R138Y, R158E
B19: FIXa-R318Y/R338E/T343R/N346Y/R403E/E410N (protein)
chain 1: B1 chain 1
chain 2: B1 chain 2 with N67K, S69N, R138Y, R158E, N166Y
B20: FIXa K228N/R318Y/R338E/R403E/E410N (protein)
chain 1: B1 chain 1
chain 2: B1 chain 2 with K48N, N67K, S69N, R138Y, R158E, R163T
B21: FIXa D203N/F205T/K228N (protein)
chain 1: B1 chain 1
chain 2: B1 chain 2 with D23N, F25T, K48N, N67K, S69N, R163T, E223R, N230E
B22: FIXa-R318Y/R338E/Y345A/R403E/E410N (protein)
chain 1: B1 chain 1
chain 2: B1 chain 2 with N67K, S69N, R138Y, R158E, R163T, Y165A
B23: FIXa D203N/F205T/E410N (protein)
chain 1: B1 chain 1
chain 2: B1 chain 2 with D23N, F25T, N67K, S69N, R163T, E223R
B24: FIXa-R318Y/R338E/N346Y/R403E/E410N (protein)
chain 1: B1 chain 1
chain 2: B1 chain 2 with N67K, S69N, R138Y, R158E, R163T, N166Y
B25: FIXa variant I251S/R318Y/R338E/E410N (protein)
chain 1: B1 chain 1
chain 2: B1 chain 2 with N67K, S69N, I71S, R138Y, R158E, R163T, E223R
B26: FIXa-R318Y/R338E/T343R/N346D/R403E/E410N (protein)
chain 1: B1 chain 1
chain 2: B1 chain 2 with N67K, S69N, R138Y, R158E, N166D
B27: FIXa variant Y259F/K265T/Y345T (protein)
chain 1: B1 chain 1
chain 2: B1 chain 2 with N67K, S69N, Y79F, K85T, R163T, Y165T, E223R, N230E
B28: FIXa variant Y155F/K247N/N249S/R318Y/R338E/R403E/E410N (protein)
chain 1: B1 chain 1
chain 2: B1 chain 2 with R138Y, R158E, R163T
B29: FIXa Y155F/R318Y/R338E/R403E (protein)
chain 1: B1 chain 1
chain 2: B1 chain 2 with N67K, S69N, R138Y, R158E, R163T, N230E
B30: FIXa Y155F/R338E/R403E/E410N (protein)
chain 1: B1 chain 1
chain 2: B1 chain 2 with N67K, S69N, R163T, R178E
B31: FIXa variant I251S/R318Y/R338E/R403E/E410N (protein)
chain 1: B1 chain 1
chain 2: B1 chain 2 with N67K, S69N, I71S, R138Y, R158E, R163T
B32: FIXa variant K247N/N249S/R318Y/R338E/R403E/E410N (protein)
chain 1: B1 chain 1
chain 2: B1 chain 2 with R138Y, R158E, R163T
B33: FIXa Y155F/R318Y/R403E/E410N (protein)
chain 1: B1 chain 1
chain 2: B1 chain 2 with N67K, S69N, R138Y, R163T
B34: FIXa-Y155F/R338E/R403E/E410N (protein)
chain 1: B1 chain 1
chain 2: B1 chain 2 with N67K, S69N, R163T, R178E
B35: FIXa variant Y155F/K228N/R318Y/R338E/R403E/E410N (protein)
chain 1: B1 chain 1
chain 2: B1 chain 2 with K48N, N67K, S69N, R138Y, R158E, R163T
B36: FIXa variant D85N/K228N/R318Y/R338E/R403E/E410N (protein)
chain 1: B1 chain 1 with D85N
chain 2: B1 chain 2 with K48N, N67K, S69N, R138Y, R158E, R163T
B37: FIXa K228N/R318Y/E410N (protein)
chain 1: B1 chain 1
chain 2: B1 chain 2 with K48N, N67K, S69N, R138Y, R163T, E223R
B38: FIXa R318Y/R338E/R403E/E410N (protein)
chain 1: B1 chain 1
chain 2: B1 chain 2 with N67K, S69N, R138Y, R158E, R163T
B39: FIXa R318Y/R338E/R403E (protein)
chain 1: B1 chain 1
chain 2: B1 chain 2 with N67K, S69N, R138Y, R158E, R163T, N230E
B40: FIXa Y155F/R318Y/R338E/E410N (protein)
chain 1: B1 chain 1
chain 2: B1 chain 2 with N67K, S69N, R138Y, R158E, R163T, E223R
B41: FIXa D203N/F205T/R338A (protein)
chain 1: B1 chain 1
chain 2: B1 chain 2 with D23N, F25T, N67K, S69N, R158A, R163T, E223R, N230E
B42: FIXa-Y155F/R318Y/R403E/E410N (protein)
chain 1: B1 chain 1
chain 2: B1 chain 2 with N67K, S69N, R138Y, R163T
B43: FIXa D203N/F205T/R338E/R403E (protein)
chain 1: B1 chain 1
chain 2: B1 chain 2 with D23N, F25T, N67K, S69N, R158E, R163T, N230E
B44: FIXa variant D104N/K106S/Y155F/K247N/N249S/R318Y/R338E/R403E/E410N (protein)
chain 1: B1 chain 1 with D104N, K106S
chain 2: B1 chain 2 with R138Y, R158E, R163T
B45: FIXa-R318Y/R338E/Y345A/N346D/R403E/E410N (protein)
chain 1: B1 chain 1
chain 2: B1 chain 2 with N67K, S69N, R138Y, R158E, R163T, Y165A, N166D

Molecular target: Factor X (FX), P00742
Sequence (P00742 whole entry, looked up): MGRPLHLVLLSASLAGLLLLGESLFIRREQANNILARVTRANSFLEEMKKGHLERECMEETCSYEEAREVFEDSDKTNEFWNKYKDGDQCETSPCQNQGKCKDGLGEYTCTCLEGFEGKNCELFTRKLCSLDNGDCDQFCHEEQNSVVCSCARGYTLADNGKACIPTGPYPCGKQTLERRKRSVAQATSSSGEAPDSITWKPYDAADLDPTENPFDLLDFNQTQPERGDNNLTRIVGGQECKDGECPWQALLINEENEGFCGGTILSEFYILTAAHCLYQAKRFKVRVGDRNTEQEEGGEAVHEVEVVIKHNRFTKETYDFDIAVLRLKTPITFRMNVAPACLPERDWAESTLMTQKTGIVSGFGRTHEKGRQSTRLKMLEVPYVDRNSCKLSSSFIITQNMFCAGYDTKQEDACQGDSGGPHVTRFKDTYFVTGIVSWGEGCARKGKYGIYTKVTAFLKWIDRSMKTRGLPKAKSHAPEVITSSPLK

Protein | KM [µM] | kcat [s⁻¹] | also measured
B1 | 0.052 | – | % of WT kcat/KM: 635%; kcat (s^-1) of FX activation by FIXa variant in the Xase complex (FVIIIa, PC/PS vesicles, Ca2+), fluorogenic FXa read-out: 15 s⁻¹; kcat/KM for FX activation (Xase: FVIIIa, PC/PS vesicles, Ca2+): 2.9e+08 M⁻¹ s⁻¹
B2 | – | 7.2 | –
B3 | 0.0942 | – | –
B4 | – | – | kcat of FX activation by FIXa (Xase complex with FVIIIa, PC/PS vesicles, Ca2+): 6.1 s⁻¹
B5 | 0.0139 | – | –
B6 | 0.0241 | – | –
B7 | 0.0189 | – | –
B8 | 0.0475 | – | –
B9 | – | 4.5 | –
B10 | 0.0367 | – | –
B11 | – | – | KM (FX activation by FIXa in the Xase complex with FVIIIa, PC/PS vesicles and Ca2+): 0.0309 µM
B12 | 0.0592 | – | –
B13 | – | – | kcat of FX activation by FIXa (Xase complex with FVIIIa, PC/PS vesicles, Ca2+): 7.8 s⁻¹
B14 | – | 3.8 | –
B15 | – | 5.5 | –
B16 | – | 5.1 | –
B17 | – | 5.2 | –
B18 | – | – | kcat of FX activation by FIXa (Xase complex with FVIIIa, PC/PS vesicles, Ca2+): 5.7 s⁻¹
B19 | – | – | kcat of FX activation by FIXa (Xase complex with FVIIIa, PC/PS vesicles, Ca2+): 4.6 s⁻¹
B20 | – | – | KM (FX activation by FIXa in the Xase complex with FVIIIa, PC/PS vesicles and Ca2+): 0.0361 µM
B21 | 0.0399 | – | –
B22 | – | – | kcat of FX activation by FIXa (Xase complex with FVIIIa, PC/PS vesicles, Ca2+): 1.4 s⁻¹
B23 | 0.0455 | – | –

Protein | KM [µM] | kcat [s⁻¹] | also measured
B24 | – | – | kcat of FX activation by FIXa (Xase complex with FVIIIa, PC/PS vesicles, Ca2+): 3.4 s⁻¹
B25 | – | 6.4 | –
B26 | – | – | kcat of FX activation by FIXa (Xase complex with FVIIIa, PC/PS vesicles, Ca2+): 5.4 s⁻¹
B27 | – | 1.7 | –
B28 | – | 6.2 | –
B29 | 0.0671 | – | –
B30 | 0.0336 | – | –
B31 | – | 4.8 | –
B32 | – | 5.8 | –
B33 | 0.111 | – | –
B34 | – | 5.9 | –
B35 | – | 6.7 | –
B36 | – | 6 | –
B37 | 0.042 | – | –
B38 | 0.0432 | – | –
B39 | 0.0597 | – | –
B40 | 0.016 | – | –
B41 | 0.0385 | – | –
B42 | – | 2.9 | –
B43 | 0.0511 | – | –
B44 | – | 6.9 | –
B45 | – | – | kcat of FX activation by FIXa (Xase complex with FVIIIa, PC/PS vesicles, Ca2+): 1.2 s⁻¹
